Assay results taken from patent US20030203464.

Target: Rac1 (UniProt P63000)

Substance	GEF activity (32P-GTP bound to the GTPase, filter assay), with ascorbyl stearate	GEF activity (32P-GTP bound to the GTPase, filter assay), without lipid	GEF activity (32P-GTP bound to the GTPase, filter assay), with and without ascorbyl stearate
85 kD Tiam-1	ascorbyl stearate (AS) stimulated the rate of Tiam-1-mediated nucleotide exchange on Rac 1	this truncation alone, at various concentrations, exhibited no GEF activity towards Rac 1	
106 kD Tiam-1	Other truncations of Tiam-1, all containing the DH and PH domains (FIG. 3), also exhibited AS stimulated GEF activity on Rac 1		
135 kD Tiam-1			shows weak GEF activity towards Rac in the absence of AS, but is still greatly stimulated by AS
66 kD Tiam-1	Other truncations of Tiam-1, all containing the DH and PH domains (FIG. 3), also exhibited AS stimulated GEF activity on Rac 1		
